The text below walks through data of US20260297144 (published 2026).

Assay [1] concerns the target T1, C3b (human, UniProt P01024). In words: SPR steady state, Fc 3-1, 10C.
The target of assay [2] is T1, C3b. The assay can be described thus: SPR steady state, Fc 4-1, 10C.
The target in assay [3] is T1, C3b. In words: SPR steady state, Fc 2-1, 10C.

Positions count from the first letter of the chain named.

T1 sequence (P01024 23-667, chain 1 of 2): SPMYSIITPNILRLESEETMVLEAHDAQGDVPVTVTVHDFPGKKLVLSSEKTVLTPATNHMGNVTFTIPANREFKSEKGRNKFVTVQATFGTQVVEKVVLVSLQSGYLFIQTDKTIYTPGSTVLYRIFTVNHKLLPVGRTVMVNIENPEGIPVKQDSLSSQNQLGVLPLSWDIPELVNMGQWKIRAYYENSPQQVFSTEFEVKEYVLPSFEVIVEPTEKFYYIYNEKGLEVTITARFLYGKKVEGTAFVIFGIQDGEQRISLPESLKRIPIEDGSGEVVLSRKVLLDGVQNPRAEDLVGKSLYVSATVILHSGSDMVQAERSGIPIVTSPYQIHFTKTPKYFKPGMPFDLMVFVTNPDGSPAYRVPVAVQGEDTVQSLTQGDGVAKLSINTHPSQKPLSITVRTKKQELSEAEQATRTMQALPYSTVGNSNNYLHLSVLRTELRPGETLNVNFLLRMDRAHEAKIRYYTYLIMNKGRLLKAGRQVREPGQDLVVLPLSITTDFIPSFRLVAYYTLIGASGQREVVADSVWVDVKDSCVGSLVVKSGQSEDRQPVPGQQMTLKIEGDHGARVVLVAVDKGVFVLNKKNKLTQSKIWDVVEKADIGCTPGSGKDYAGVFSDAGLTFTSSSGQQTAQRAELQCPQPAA
T1 sequence (P01024 749-1663, chain 2 of 2): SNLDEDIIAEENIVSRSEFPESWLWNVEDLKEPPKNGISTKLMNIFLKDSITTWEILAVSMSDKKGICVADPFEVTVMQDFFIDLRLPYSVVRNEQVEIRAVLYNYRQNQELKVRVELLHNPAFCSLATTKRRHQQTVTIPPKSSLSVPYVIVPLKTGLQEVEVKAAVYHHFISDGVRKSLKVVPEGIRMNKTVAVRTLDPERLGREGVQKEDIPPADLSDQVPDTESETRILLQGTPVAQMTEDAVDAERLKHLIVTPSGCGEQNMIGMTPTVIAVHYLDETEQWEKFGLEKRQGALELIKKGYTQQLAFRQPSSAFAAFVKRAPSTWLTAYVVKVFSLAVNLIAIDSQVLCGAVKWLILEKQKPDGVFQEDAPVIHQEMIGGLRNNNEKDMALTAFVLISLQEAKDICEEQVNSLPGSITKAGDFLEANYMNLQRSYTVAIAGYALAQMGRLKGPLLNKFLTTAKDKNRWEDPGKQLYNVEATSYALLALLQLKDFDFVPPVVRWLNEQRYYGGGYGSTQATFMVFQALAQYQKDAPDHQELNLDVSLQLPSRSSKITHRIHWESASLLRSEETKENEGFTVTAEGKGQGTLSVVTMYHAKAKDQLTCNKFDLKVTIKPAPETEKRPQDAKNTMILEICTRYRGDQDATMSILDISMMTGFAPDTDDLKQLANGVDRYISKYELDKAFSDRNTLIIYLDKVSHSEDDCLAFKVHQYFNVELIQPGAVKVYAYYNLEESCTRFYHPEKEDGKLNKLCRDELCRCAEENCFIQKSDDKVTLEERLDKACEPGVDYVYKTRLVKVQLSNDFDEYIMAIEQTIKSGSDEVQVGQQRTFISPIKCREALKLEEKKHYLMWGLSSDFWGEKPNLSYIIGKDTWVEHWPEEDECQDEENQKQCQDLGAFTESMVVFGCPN

B1: Sial-moss FH (protein)
chain: EDCNELPPRRNTEILTGSWSDQTYPEGTQAIYKCRPGYRSLGNIIMVCRKGEWVALNPLRKCQKRPCGHPGDTPFGTFTLTGGNVFEYGVKAVYTCNEGYQLLGEINYRECDTDGWTNDIPICEVVKCLPVTAPENGKIVSSAMEPDREYHFGQAVRFVCNSGYKIEGDEEMHCSDDGFWSKEKPKCVEISCKSPDVINGSPISQKIIYKENERFQYKCNMGYEYSERGDAVCTESGWRPLPSCEEKSCDNPYIPNGDYSPLRIKHRTGDEITYQCRNGFYPATRGNTAKCTSTGWIPAPRCTLKPCDYPDIKHGGLYHENMRRPYFPVAVGKYYSYYCDEHFETPSGSYWDHIHCTQDGWSPAVPCLRKCYFPYLENGYNQNYGRKFVQGKSIDVACHPGYALPKAQTTVTCMENGWSPTPRCIRVKTCSKSSIDIENGFISESQYTYALKEKAKYQCKLGYVTADGETSGSITCGKDGWSAQPTCIKSCDIPVFMNARTKNDFTWFKLNDTLDYECHDGYESNTGSTTGSIVCGYNGWSDLPICYERECELPKIDVHLVPDRKKDQYKVGEVLKFSCKPGFTIVGPNSVQCYHFGLSPDLPICKEQVQSCGPPPELLNGNVKEKTKEEYGHSEVVEYYCNPRFLMKGPNKIQCVDGEWTTLPVCIVEESTCGDIPELEHGWAQLSSPPYYYGDSVEFNCSESFTMIGHRSITCIHGVWTQLPQCVAIDKLKKCKSSNLIILEEHLKNKKEFDHNSNIRYRCRGKEGWIHTVCINGRWDPEVNCSMAQIQLCPPPPQIPNSHNMTTTLNYRDGEKVSVLCQENYLIQEGEEITCKDGRWQSIPLCVEKIPCSQPPQIEHGTINSSRSSQESYAHGTKLSYTCEGGFRISEENETTCYMGKWSSPPQCEGLPCKSPPEISHGVVAHMSDSYQYGEEVTYKCFEGFGIDGPAIAKCLGEKWSHPPSCIKTDCLSLPSFENAIPMGEKKDVYKAGEQVTYTCATYYKMDGASNVTCINSRWTGRPTCRDTSCVNPPTVQNAYIVSRQMSKYPSGERVRYQCRSPYEMFGDEEVMCLNGNWTEPPQCKDSTGKCGPPPPIDNGDITSFPLSVYAPASSVEYQCQNLYQLEGNKRITCRNGQWSEPPKCLHPCVISREIMENYNIALRWTAKQKLYSRTGESVEFVCKRGYRLSSRSHTLRTTCWDGKLEYPTCAKR
As usually defined, the Kd is a measure of binding affinity in units of concentration. As to B1, the Kd with C3b [1] is 42.9 nM; with C3b [2] it was 51 nM; with C3b [3], 48.2 nM.

B2: Serum derived FH (sd-FH) (protein)
chain: B1 chain with I44V
Turning to B2, the Kd came to 104 nM with C3b [1], 144 nM in the assay with C3b [2] and 110 nM with C3b [3].
